Test results as given in paper PMC5494299.

Target: CagV (Helicobacter pylori (endogenous in strain 26695))
Assay: cross-linking; 5 mM DSP added to wild‐type H. pylori extract (0.1% DDM, 0.2% sarcosine) on ice for 25 min; SDS/PAGE and western blot with anti‐CagV antibody (mice); ΔcagV extract as control

## CagV (natural protein)
  stoichiometry N: 2
